These results are taken from paper PMC11302929.

This assay concerns the target recombinant soluble NDV HN ectodomain with GCN4IL dimerization domain (HN-GCN4IL) (not stated | Newcastle disease virus). The experiment in a line: SEC; Superdex 200 Increase 10/300 GL column, freshly purified NDV HN proteins. A general note: In gel filtration, larger molecules generally elute earlier.

Where “and” joins values, the source holds several entries; their conditions need not be identical. Equal entries are not always repeated.

For “recombinant soluble NDV HN ectodomain with GCN4IL dimerization domain (HN-GCN4IL)”, the stoichiometry N is 2 and 4.

What is called stoichiometry N is a count of units in the complex or per binding partner.
